The values below come from paper doi:10.1101/2024.09.13.612941.

For data set [1], the target named is T1, SMARCAD1 (human, UniProt Q9H4L7-2 1-1028, V974A).
T1 sequence: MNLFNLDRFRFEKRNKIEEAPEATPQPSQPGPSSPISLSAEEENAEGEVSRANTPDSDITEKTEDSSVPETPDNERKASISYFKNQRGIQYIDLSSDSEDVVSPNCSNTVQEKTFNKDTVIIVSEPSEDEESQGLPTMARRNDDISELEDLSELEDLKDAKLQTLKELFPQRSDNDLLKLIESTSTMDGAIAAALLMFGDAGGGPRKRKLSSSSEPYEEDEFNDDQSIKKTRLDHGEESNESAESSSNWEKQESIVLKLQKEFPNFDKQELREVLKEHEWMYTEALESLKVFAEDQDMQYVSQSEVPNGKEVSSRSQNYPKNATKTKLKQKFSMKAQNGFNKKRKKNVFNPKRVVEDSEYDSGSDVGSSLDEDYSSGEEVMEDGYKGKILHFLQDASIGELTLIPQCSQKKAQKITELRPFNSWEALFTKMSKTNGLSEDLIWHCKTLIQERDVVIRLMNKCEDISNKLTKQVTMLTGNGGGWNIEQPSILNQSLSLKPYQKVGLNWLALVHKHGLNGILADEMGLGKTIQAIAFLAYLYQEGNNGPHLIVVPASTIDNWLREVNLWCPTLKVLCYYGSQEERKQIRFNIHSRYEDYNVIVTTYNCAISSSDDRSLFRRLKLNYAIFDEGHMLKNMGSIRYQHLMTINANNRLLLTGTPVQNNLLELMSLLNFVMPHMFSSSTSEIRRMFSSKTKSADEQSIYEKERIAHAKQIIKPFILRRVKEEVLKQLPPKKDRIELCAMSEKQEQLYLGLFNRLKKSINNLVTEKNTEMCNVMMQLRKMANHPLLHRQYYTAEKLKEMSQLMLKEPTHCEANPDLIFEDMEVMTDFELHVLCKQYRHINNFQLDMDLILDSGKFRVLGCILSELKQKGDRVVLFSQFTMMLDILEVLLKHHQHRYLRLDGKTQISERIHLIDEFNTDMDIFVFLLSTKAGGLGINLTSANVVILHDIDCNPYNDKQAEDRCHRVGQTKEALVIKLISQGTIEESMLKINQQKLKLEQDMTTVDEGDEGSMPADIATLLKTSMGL
Briefly: fluorescence polarization. In general terms: Fluorescence polarisation rises when a labelled molecule tumbles more slowly, as on binding a larger partner.

For data set [2], the target named is T1, SMARCAD1. As to the kind of experiment: fluorescence polarization. This is another data set of the same source.

B1: dsDNAshort (dsDNA)
DNA 1: GCAGCTGGCACGACAGGTATGAATC
DNA 2: GATTCATACCTGTCGTGCCAGCTGC
B1: the “apparent K (half saturation)” value in the data set with SMARCAD1 [1] was found to be 39.5 ± 2 nM.

B2: DNA-RNA hybrid (DNA:RNA)
RNA: GCAGCUGGCACGACAGGUAUGAAUC
DNA: GATTCATACCTGTCGTGCCAGCTGC
For the molecule B2, the binding result with SMARCAD1 [2] was “binds”.

B3: R-loopshort (mixed)
DNA 1: GCCAGGGACGAGGTGAACCTGCAGGTGGGCGGCTACTACTTAGATGTCATCCGAGGCTTATTGGTAGAATTCGGCAGCGTCATGCGACGGC
DNA 2: GCCGTCGCATGACGCTGCCGAATTCTACCACGCGATTCATACCTGTCGTGCCAGCTGCTTTGCCCACCTGCAGGTTCACCTCGTCCCTGGC
RNA: GCAGCUGGCACGACAGGUAUGAAUC
Consider B3, for which the “apparent K (half saturation)” value with SMARCAD1 [1] turned out to be 26.1 ± 1.4 nM.
